# B1: MDGA2-ΔMAM: truncated form of MDGA2 lacking its MAM domain (protein)
# chain: PPTVRIVHSGLACNIEEERYSERVYTIREGETLELTCLVTGHPRPQIRWTKTAGSASDRFQDSSVFNETLRITNIQRHQGGRYYCKAENGLGSPAIKSIRVDVYYLDDPVVTVHQSIGEAKEQFYYERTVFLRCVANSNPPVRYSWRRGQEVLLQGSDKGVEIYEPFFTQGETKILKLKNLRPQDYANYSCIASVRNVCNIPDKMVSFRLSNKTASPSIKLLVDDPIVVNPGEAITLVCVTTGGEPAPSLTWVRSFGTLPEKTVLNGGTLTIPAITSDDAGTYSCIANNNVGNPAKKSTNIIVRALKKGRFWITPDPYHKDDNIQIGREVKISCQVEAVPSEELTFSWFKNGRPLRSSERMVITQTDPDVSPGTTNLDIIDLKFTDFGTYTCVASLKGGGISDISIDVNISSSTVPPNLTVPQEKSPLVTREGDTIELQCQVTGKPKPIILWSRADKEVAMPDGSMQMESYDGTLRIVNVSREMSGMYRCQTSQYNGFNVKPREALVQLIVQYPPAVEPAFLEIRQGQDRSVTMSCRVLRAYPIRVLTYEWRLGNKLLRTGQFDSQEYTEYAVKSLSNENYGVYNCSIINEAGAGRCSFLVTGKAYAPEFYYDTYNPVWQNRHRVYSYSLQWTQMNPDAVDRIVAYRLGIRQAGQQRWWEQEIKINGNIQKGELITYNLTELIKPEAYEVRLTPLTKFGEGDSTIRVIKYSAPVNPHLREQDLATKNSVD
# modifications: left off: GFP, end not stated, kept
# notes: truncated form of MDGA2 lacking its MAM domain
# Key:
# TrkB (TrkB-Flag) = test: Co-IP of MDGA2 and its truncations with TrkB-Flag in HEK293T cells; format: binding, human; details: HEK293T cells co-transfected with TrkB-Flag and GFP-tagged MDGA2 constructs
# Method: (§1) Fig 3 MDGA2 interacts with TrkB and suppresses TrkB activity. (A) Primary hippocampal neurons derived from Mdga2^ +/− (Het) mice and their wild-type (WT) littermates at DIV 7 were treated with different doses of BDNF for 30 min. Equal amounts of protein lysates were subjected to immunoprecipitation (IP) with an anti-TrkB antibody, followed by immunoblotting with an anti-phosphotyrosine (pTyr) antibody or the anti-TrkB antibody. The pTyr levels were quantified by densitometry, normalized to total TrkB levels, and then compared to those of WT controls. n = 3 per group. (B) WT mouse brain lysates were subjected to IP with an anti-MDGA2 antibody and a control IgG, and immunoblotted (IB) for the components indicated. mBDNF, mature BDNF; ImBDNF, immature BDNF. (C) Hippocampal neurons from WT mice at DIV 7 were immunostained with antibodies against MDGA2 (red) and TrkB (green), and then counter-stained with DAPI (blue). Images were acquired by a confocal microscope. Scale bar: 10 μm. (D) Surface plasmon resonance (SPR) analysis of the binding between recombinant MDGA2 protein and recombinant TrkB protein. TrkB was immobilized on a Biacore CM5 chip and tested for its binding with MDGA2 at the concentrations indicated. (E) Computer simulation of the binding mode of TrkB and MDGA2. The predicted binding domain of TrkB (the d5 domain) is highlighted by a red square and labeled in brown. The predicted binding domain of MDGA2 (the MAM domain) is highlighted by a red square and labeled in yellow. […] Immunoprecipitated TrkB levels were quantified by densitometry, normalized to input levels, and compared to respective controls (set to one arbitrary units). n = 3 per group. […] Levels of phosphorylated proteins were quantified by densitometry, normalized to respective total protein levels and compared to controls (set to one arbitrary units). n = 6 per group. […] P-values were determined by two-tailed unpaired Student t-test in (A) and one-way ANOVA with Tukey’s multiple comparisons test in (H, I, J). *p < 0.05, **p < 0.01, ***p < 0.001, ns: not significant. […]
# TrkB (TrkB-VN) = test: BiFC assay in HeLa cells (TrkB-VN with MDGA2-VC or ΔMAM-VC); format: cell-based, human; details: 24 h, Venus fluorescence
# Method: as §1, with “BDNF.” for “BDNF. (C) Hippocampal neurons from WT mice at DIV 7 were immunostained with antibodies against MDGA2 (red) and TrkB (green), and then counter-stained with DAPI (blue). Images were acquired by a confocal microscope. Scale bar: 10 μm. (D) Surface plasmon resonance (SPR) analysis of the binding between recombinant MDGA2 protein and recombinant TrkB protein. TrkB was immobilized on a Biacore CM5 chip and tested for its binding with MDGA2 at the concentrations indicated. (E) Computer simulation of the binding mode of TrkB and MDGA2. The predicted binding domain of TrkB (the d5 domain) is highlighted by a red square and labeled in brown. The predicted binding domain of MDGA2 (the MAM domain) is highlighted by a red square and labeled in yellow.”
molecule,measurement,setting,value
B1,interaction with TrkB (Co-IP),TrkB (TrkB-Flag),abolished the MDGA2-TrkB interaction
same,interaction with TrkB (BiFC),TrkB (TrkB-VN),not MDGA2-ΔMAM

# Reference: article PMC11960969, “Mdga2 deficiency leads to an aberrant activation of BDNF/TrkB signaling that underlies autism-relevant synaptic and behavioral changes in mice” (PLOS Biology, 2025)
